Test results from article PMC5389579.

Target: SSRP1 (Flag) (human, UniProt Q08945 1-709)
Experiment: EMSA

Chain of SSRP1 (Flag) (Q08945 whole entry): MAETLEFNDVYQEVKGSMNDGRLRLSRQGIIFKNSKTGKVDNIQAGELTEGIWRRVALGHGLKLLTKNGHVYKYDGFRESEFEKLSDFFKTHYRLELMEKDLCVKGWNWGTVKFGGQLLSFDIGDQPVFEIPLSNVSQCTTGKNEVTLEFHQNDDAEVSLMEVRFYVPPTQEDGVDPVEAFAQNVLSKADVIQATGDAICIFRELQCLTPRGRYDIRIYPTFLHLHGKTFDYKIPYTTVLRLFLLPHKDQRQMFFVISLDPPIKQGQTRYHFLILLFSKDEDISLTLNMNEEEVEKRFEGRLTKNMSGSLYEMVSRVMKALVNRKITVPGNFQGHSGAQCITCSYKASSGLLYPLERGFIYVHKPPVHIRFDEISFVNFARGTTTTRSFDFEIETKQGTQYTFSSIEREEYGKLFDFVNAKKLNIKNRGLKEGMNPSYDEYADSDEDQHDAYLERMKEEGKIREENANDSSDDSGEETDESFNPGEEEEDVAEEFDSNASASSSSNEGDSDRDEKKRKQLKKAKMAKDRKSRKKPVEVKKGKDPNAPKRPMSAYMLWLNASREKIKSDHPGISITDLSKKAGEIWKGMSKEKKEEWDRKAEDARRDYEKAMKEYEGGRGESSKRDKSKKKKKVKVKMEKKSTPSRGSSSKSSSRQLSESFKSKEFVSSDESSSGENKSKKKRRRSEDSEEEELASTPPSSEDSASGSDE

B1: AC probe (dsDNA)
DNA 1: ACACACACACACACACACACACACACACACACACAC
DNA 2: GTGTGTGTGTGTGTGTGTGTGTGTGTGTGTGTGTGT
binding result: binds
